This series concerns the molecule itself. The experiment in a line: SEC-MALS. On the technique in general: SEC sorts molecules by how far they enter the pores of the column.

We go through two proteins from paper PMC3875647 (Worm, 2013).

B1: MBP-AA-SAS5-NTD (SAS-5 residues 1–260 fused to MBP with a two-alanine linker) (domain or fragment, C. elegans, UniProt Q20010 1-260, looked up)
chain: MNNYDDLPCSIYFKKPTVQEFVDQPRVFEDSEVPAFQEVLQLPQERTKPPVPSTQPIVAAVEVAKKKSCLSAPKPRKEPPSHPALRQKTVAFGKTVNVSQTVEGTSRNSKKVLASTMSAQNTTTTEEQAAENWRDAMKTELQTIRTEIQEETARRQEELNAQNLVKMQELMSNFFQKITIPKQQAIEPVEKDKENFHESPRQSRQQKPASKIASAREVIKRDGVIPPEALTIIEQRLRSDPMFRQQIDNVLADAECDANR
For orientation: stoichiometry N means a count of units in the complex or per binding partner. As to B1, the “stoichiometry N” value is 4.

B2: MBP-AA-SAS-5 aa82-260 (domain or fragment, C. elegans, UniProt Q20010 82-260, looked up)
chain: HPALRQKTVAFGKTVNVSQTVEGTSRNSKKVLASTMSAQNTTTTEEQAAENWRDAMKTELQTIRTEIQEETARRQEELNAQNLVKMQELMSNFFQKITIPKQQAIEPVEKDKENFHESPRQSRQQKPASKIASAREVIKRDGVIPPEALTIIEQRLRSDPMFRQQIDNVLADAECDANR
On to B2, for which the “stoichiometry N” value was determined as 4.
